The values below come from EP3492597A2.

This assay concerns the target human hepatocyte growth factor receptor (hHGFR) (human) (UniProt P08581). As to the kind of experiment: cell-based or functional assay.
Sequence of UniProt P08581 (P08581 25-1390): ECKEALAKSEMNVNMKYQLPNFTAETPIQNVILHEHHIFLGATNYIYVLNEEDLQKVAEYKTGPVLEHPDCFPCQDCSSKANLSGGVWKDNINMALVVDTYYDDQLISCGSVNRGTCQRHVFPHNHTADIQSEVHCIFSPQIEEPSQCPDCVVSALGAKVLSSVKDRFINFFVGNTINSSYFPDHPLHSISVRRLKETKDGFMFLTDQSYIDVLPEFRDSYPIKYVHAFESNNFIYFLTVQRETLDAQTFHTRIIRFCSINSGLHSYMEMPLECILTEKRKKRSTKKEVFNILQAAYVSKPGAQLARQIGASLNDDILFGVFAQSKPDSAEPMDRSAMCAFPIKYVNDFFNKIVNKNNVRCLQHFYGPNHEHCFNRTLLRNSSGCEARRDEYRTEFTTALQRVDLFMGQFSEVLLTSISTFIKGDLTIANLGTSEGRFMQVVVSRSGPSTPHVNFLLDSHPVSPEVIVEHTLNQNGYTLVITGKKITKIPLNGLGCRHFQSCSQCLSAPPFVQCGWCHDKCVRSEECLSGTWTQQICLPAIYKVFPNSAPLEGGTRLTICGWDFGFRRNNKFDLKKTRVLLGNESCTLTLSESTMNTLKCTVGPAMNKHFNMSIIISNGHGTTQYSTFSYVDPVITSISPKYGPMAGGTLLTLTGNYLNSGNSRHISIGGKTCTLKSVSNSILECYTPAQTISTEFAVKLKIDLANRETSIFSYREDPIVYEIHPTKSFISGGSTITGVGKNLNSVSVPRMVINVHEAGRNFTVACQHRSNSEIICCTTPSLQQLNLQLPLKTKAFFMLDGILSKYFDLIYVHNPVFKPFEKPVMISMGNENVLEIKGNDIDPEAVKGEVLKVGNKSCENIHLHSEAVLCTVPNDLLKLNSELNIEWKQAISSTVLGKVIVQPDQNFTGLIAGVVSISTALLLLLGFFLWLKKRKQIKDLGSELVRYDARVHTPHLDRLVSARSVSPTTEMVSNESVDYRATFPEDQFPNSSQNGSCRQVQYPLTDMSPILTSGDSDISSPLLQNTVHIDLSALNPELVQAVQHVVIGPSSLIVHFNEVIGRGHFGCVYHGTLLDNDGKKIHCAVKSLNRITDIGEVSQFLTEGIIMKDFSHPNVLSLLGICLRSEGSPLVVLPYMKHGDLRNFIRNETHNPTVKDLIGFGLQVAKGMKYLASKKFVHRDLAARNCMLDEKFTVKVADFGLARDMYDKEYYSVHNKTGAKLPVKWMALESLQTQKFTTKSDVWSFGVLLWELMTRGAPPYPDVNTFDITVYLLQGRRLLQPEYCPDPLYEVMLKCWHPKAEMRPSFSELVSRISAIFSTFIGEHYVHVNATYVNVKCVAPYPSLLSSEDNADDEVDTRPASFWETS

As to “S663V+T492V mutant AAV3 capsid (rAAV3-S663V+T492V vector)”, the transduction of T47D+hHGFR cells against parental T47D cells was more than 5 fold.
On to “wild-type AAV3 capsid (scAAV3-CBAp-EGFP vector)”, for which the transduction efficiency (EGFP expression, 72 hr) in T47D+hHGFR cells against T47D cells lay in the range of 8 to 13 fold and the transduction of T47D+hHGFR cells against parental T47D cells is more than 5 fold.
Regarding “Y705+731F double-mutant AAV3 capsid (Y705+731F scAAV3-CBAp-EGFP vector)”, the transduction of T47D+hHGFR cells against parental T47D cells was more than 5 fold.
